Several values for one entry are separate records, joined by “and”; a condition that tells them apart may be missing. Equal values may be shown once.
Tests used:
[1] = target: platelet glycoprotein Ib (GPIb) (human) (UniProt P07359)
[2] = target: platelet glycoprotein Ib (GPIb) (human) (UniProt P07359); remark: listed apart in the source
[3] = target: platelet glycoprotein Ib (GPIb) (human) (UniProt P07359); remark: listed apart in the source
[4] = target: platelet glycoprotein Ib (GPIb) (human) (UniProt P07359); experiment: platelet adhesion to immobilized VCL on a glass cover slip in a laminar flow cell
[5] = target: platelet glycoprotein Ib (GPIb) (human) (UniProt P07359); remark: listed apart in the source
[6] = target: platelet glycoprotein Ib (GPIb) (human) (UniProt P07359); experiment: platelet adhesion to immobilized VCL against immobilized albumin in a laminar flow cell
[7] = target: platelet glycoprotein Ib (GPIb) (human) (UniProt P07359); remark: listed apart in the source
[8] = target: platelet glycoprotein Ib (GPIb) (human) (UniProt P07359); remark: listed apart in the source
[9] = target: platelet glycoprotein Ib (GPIb) (human) (UniProt P07359); remark: listed apart in the source
[10] = target: platelet glycoprotein Ib (GPIb) (human) (UniProt P07359); remark: listed apart in the source
[11] = target: platelet glycoprotein Ib (GPIb) (human) (UniProt P07359); remark: listed apart in the source
[12] = target: platelet glycoprotein Ib (GPIb) (human) (UniProt P07359); remark: listed apart in the source
[13] = target: platelet glycoprotein Ib (GPIb) (human) (UniProt P07359); remark: listed apart in the source
[14] = tested on: rat platelet rich plasma (PRP); experiment: vWF-dependent platelet aggregation assay in platelet rich plasma (PRP); format: cell-based; conditions: ristocetin up to 5.0 mg/ml, no additional agent
Method: This is a standardized von Willebrand Factor (vWF)-dependent aggregation assay using human or rat platelet rich plasma (PRP). The addition of various concentrations of unfractionated Bothrops jararaca venom (BJV), which includes botrocetin and an additional thrombin-like component, or ristocetin results in an aggregatory response in the absence of any additional agent. Using ristocetin (1.5 mg/ml) as the agonist 43 μg/ml VCL abolished the aggregation of human PRP.

Row | platelet adhesion to immobilized fibrinogen in a laminar flow cell [1] | platelet adhesion to immobilized fibronectin in a laminar flow cell [2] | Dissolution of preformed aggregates (made by RIPA) [3] | IC50, Asialo vWF induced platelet aggregation [3] | IC50, Platelet deposition under conditions of flow (everted denuded human umbilical artery, whole human blood) [3] | IC50, Ristocetin induced platelet aggregation [3] | IC50, Thrombin induced platelet aggregation [3] | percent coverage of the test surface by platelets [4] | Ristocetin induced platelet aggregation (RIPA) [5] | fold of adhesion to albumin [6] | % Inhibition of Platelet Aggregation (asialo-vWF induced, in PRP) [7] | IC50, platelet adhesion to ECM at a shear rate of 1300 s^-1 [9] | % Inhibition of Platelet Aggregation (ristocetin induced, washed human platelets with intact vWF) [10] | platelet adhesion to immobilized collagen (type I) in a laminar flow cell [11] | platelet adhesion to immobilized vWF in a laminar flow cell [12] | platelet adhesion to endothelial cell extracellular matrix (ECM) in a laminar flow cell [13] | Substance | platelet deposition on damaged porcine aorta perfused ex vivo with normal human blood [8] | Aggregation of rat PRP induced by ristocetin [14]
1 | 75 % inhibition | 80 % inhibition | 0.5 µM VCL | 0.15 µM VCL | 1 µM VCL | 0.2 µM VCL and 0.3 µM VCL | 0.3 µM VCL | < 5 % coverage | 100 % inhibition | 10 fold | 76% | 800 nM | 100% | 50 % inhibition | 25 % inhibition | 70 % inhibition | VCL, a vWF GPIb binding domain polypeptide (methionine plus amino acids 504-728 of mature human vWF) (ligand) | 60 % reduction | –
2 | – | – | – | – | – | – | – | – | – | – | – | – | – | – | – | – | ristocetin | – | did not cause measurable aggregation
